Where no end group is shown, it is not given here.
B1: Phage-2225 (peptide)
peptide: LFKVCTPSWMCSGF
B2: Phage-2212 (peptide)
peptide: TEKWCIPSWMCEIS
notes: Tested as clonal phage supernatant, with the peptide fused to pIII of the bacteriophage
B3: Phage-2316 (peptide)
peptide: GMLACTPAWMCEGF
B4: Phage-2210 (peptide)
peptide: THNWCTPQWMCDGF
notes: as for B2
B5: Phage-2230 (peptide)
peptide: TDMWCIPPWMCERI
B6: Phage-2221 (peptide)
peptide: GHQWCIPQWMCVGL
notes: as for B2
B7: Phage-2228 (peptide)
peptide: LVKWCIPQWMCEQA
B8: Phage-2236 (peptide)
peptide: PRKWCIPAWMCEII
B9: Phage-2314 (peptide)
peptide: FVNWCIPTWMCPEI
B10: Phage-2227 (peptide)
peptide: SELWCIPPWMCNFL
B11: Phage-2232 (peptide)
peptide: QLNWCRPAWMCEGF
B12: Phage-1996 (peptide)
peptide: GSNWCKPAWMCEIM
notes: tested as crude phage supernatant
B13: Phage-2213 (peptide)
peptide: VIPLCSPPWMCFMS
notes: as for B2
B14: Phage-2315 (peptide)
peptide: EARWCTPPWMCAYM
modifications: cysteine pairing not given here; also: displayed on bacteriophage by fusion to pIII
B15: Phage-2209 (peptide)
peptide: QDHWCVPQWMCEML
notes: as for B2
B16: Phage-2218 (peptide)
peptide: VPKQCVPEWMCSGF
notes: as for B2
B17: Phage-1995 (peptide)
peptide: MGKWCIPPWMCVVD
notes: as for B12
B18: Phage-2234 (peptide)
peptide: MPNWCTPTWMCQGF
B19: Phage-2237 (peptide)
peptide: VSAWCIPPWMCGTN
B20: Phage-2216 (peptide)
peptide: WAQWCTPSWMCEGF
notes: as for B2
B21: Phage-2229 (peptide)
peptide: LLKWCTPPWMCELH
B22: Phage-2219 (peptide)
peptide: SENWCIPAWMCSGF
notes: as for B2
B23: Phage-2215 (peptide)
peptide: GVKWCTPPWMCEVA
notes: as for B2
B24: Phage-2226 (peptide)
peptide: LAYWCTPAWMCEGF
B25: Phage-2233 (peptide)
peptide: EIQWCTPSWMCPWL
B26: Phage-2217 (peptide)
peptide: EVKWCIPSWMCESE
notes: as for B2
B27: Phage-2313 (peptide)
peptide: LEKWCMPPWMCSGT
modifications: cysteine pairing not given here; also: displayed on bacteriophage by fusion to pIII
B28: Phage-2222 (peptide)
peptide: TEKWCIPQWMCEAT
modifications: cysteine pairing not given here; also: displayed on phage, fused to pIII
notes: Peptide-180 library clone, tested as clonal phage (peptide fused to the pIII filament of the bacteriophage)
B29: Phage-2235 (peptide)
peptide: FNKWCVPAWMCSDM
B30: Phage-2208 (peptide)
peptide: ALHWCIPEWMCSSM
notes: as for B2
B31: Phage-2207 (peptide)
peptide: PTKWCIPEWMCSVI
notes: as for B2
B32: Phage-2223 (peptide)
peptide: FLKWCTPEWMCSDV
B33: Phage-2220 (peptide)
peptide: EPKWCTPEWMCLNL
notes: as for B2
B34: Phage-2231 (peptide)
peptide: LSKWCIPEWMCAVM
modifications: cysteine pairing not given here; also: pIII fusion on bacteriophage (not given here)
B35: Phage-2214 (peptide)
peptide: PEKWCIPEWMCDAL
notes: Tested as clonal phage supernatant, with the peptide fused to pIII of the bacteriophage; Read from the row with '-' as the Peptide-180 residue: PEKWCIPEWMCDAL
B36: Phage-2206 (peptide)
peptide: LEKWCIPAWMCAVL
modifications: cysteine pairing not given here; also: fused to pIII of bacteriophage
notes: as for B2
B37: Phage-2211 (peptide)
peptide: PGKWCIPAWMCSLV
notes: as for B2
B38: Phage-2224 (peptide)
peptide: AIKWCTPPWMCDWH

What was measured:
[1] = molecular target: T1, Anti-PSMA Fab (SEQ ID NOs: 19, 20); test: phage binding ELISA on plate-captured PSMA Fab, wells pre-incubated with PSMA antigen as competitor
T1 construct: Biotinylated and captured on neutravidin coated plates in the phage ELISA; also called 006 PSMA Fab
Description: (§1) Clonal phage were harvested as crude supernatants and screened via standard ELISAs. […] Prior to the addition of clonal phage. wells were incubated with blocking buffer and PSMA antigen or blocking buffer alone. Without washing or aspirating, clonal phage supernatants were then added to the wells and incubated for a short time. Wells were then washed followed by detection of bound phage using a horse radish conjugated anti-M13 antibody.

[2] = molecular target: T1, Anti-PSMA Fab (SEQ ID NOs: 19, 20); test: phage binding ELISA, clonal phage on plate-captured biotinylated PSMA Fab
Description: as §1

[3] = molecular target: T2, Anti-PSMA Fab (SEQ ID NOs: 19, 20); test: phage ELISA; biotinylated PSMA Fab on neutravidin plate, bound phage detected with anti-M13-HRP;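 further: crude clonal phage supernatants added, without a wash, to wells pretreated with PSMA antigen in blocking buffer or with blocking buffer only, then briefly incubated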
T2 construct: Biotinylated and captured on neutravidin coated plates in the phage ELISA; also called 006 PSMA Fab
Description: as §1

[4] = molecular target: T2, Anti-PSMA Fab (SEQ ID NOs: 19, 20); test: phage ELISA; PSMA Fab on plate pre-incubated with PSMA antigen as competitor, anti-M13-HRP detection;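 further: clonal phage from crude supernatants added without washing to wells preblocked with or without PSMA antigen, washed, bound phage read out by ELISA with HRP-linked anti-M13 antibody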
Description: as §1

PSMA Fab (006 PSMA Fab) [5] = molecular target: T3, PSMA Fab (006 PSMA Fab); test: clonal phage ELISA; biotinylated PSMA Fab on neutravidin plate pre-incubated with competitor PSMA antigen; anti-M13-HRP detection
T3 construct: also called Anti-PSMA Fab; anti-PSMA Fab
Description: as §1

PSMA Fab (006 PSMA Fab) [6] = molecular target: T3, PSMA Fab (006 PSMA Fab); test: clonal phage ELISA; biotinylated PSMA Fab on neutravidin plate, blocking buffer alone; anti-M13-HRP detection;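 further: clonal phage applied as crude supernatants to wells preincubated with blocking buffer, binding read by ELISA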
Description: as §1

[7] = molecular target: T4, Anti-PSMA Fab (SEQ ID NOs: 19, 20); test: phage ELISA; biotinylated PSMA Fab on neutravidin plate, clonal phage supernatant, anti-M13-HRP detection;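 further: wells were preincubated with blocking buffer containing PSMA antigen or with blocking buffer only, then phage supernatant was added without washing for a brief incubation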
T4 construct: Biotinylated and captured on neutravidin coated plates in the phage ELISA; also called 006 PSMA Fab
Description: as §1

[8] = molecular target: T4, Anti-PSMA Fab (SEQ ID NOs: 19, 20); test: phage ELISA; PSMA Fab on plate pre-incubated with PSMA antigen as competitor, anti-M13-HRP detection; remark: listed apart in the source;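 further: clonal phage from crude supernatants added without washing to wells preblocked with or without PSMA antigen, washed, bound phage read out by ELISA with HRP-linked anti-M13 antibody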
Description: as §1

Binder | Anti-PSMA Fab signal in the presence of PSMA [1] | Anti-PSMA Fab (SEQ ID NOs: 19, 20) signal [2] | Phage binding ELISA, Anti-PSMA Fab signal [3] | Phage binding ELISA, Anti-PSMA Fab signal in the presence of PSMA [4] | other results
B1 | 0.0813 | 1.58 | – | – | –
B2 | – | – | 1.6 | 0.0837 | –
B3 | – | – | – | – | Phage binding ELISA signal, Anti-PSMA Fab in presence of PSMA antigen (PSMA Fab (006 PSMA Fab) [5]): 0.0923; Phage binding ELISA signal, Anti-PSMA Fab (PSMA Fab (006 PSMA Fab) [6]): 1.47
B4 | – | – | 1.6 | 0.0628 | –
B5 | 0.0846 | 1.57 | – | – | –
B6 | – | – | 1.58 | 0.0809 | –
B7 | 0.0712 | 1.57 | – | – | –
B8 | 0.0733 | 1.56 | – | – | –
B9 | – | – | – | – | Phage binding ELISA signal, Anti-PSMA Fab in presence of PSMA antigen (PSMA Fab (006 PSMA Fab) [5]): 0.233; Phage binding ELISA signal, Anti-PSMA Fab (PSMA Fab (006 PSMA Fab) [6]): 1.47
B10 | 0.0684 | 1.57 | – | – | –
B11 | 0.128 | 1.57 | – | – | –
B12 | – | – | – | – | Phage binding ELISA, Anti-PSMA Fab signal [7]: 1.86; Phage binding ELISA, Anti-PSMA Fab signal in the presence of PSMA [8]: 0.0723
B13 | – | – | 1.6 | 0.0631 | –
B14 | – | – | – | – | Phage binding ELISA signal, Anti-PSMA Fab in presence of PSMA antigen (PSMA Fab (006 PSMA Fab) [5]): 0.0724; Phage binding ELISA signal, Anti-PSMA Fab (PSMA Fab (006 PSMA Fab) [6]): 1.47
B15 | – | – | 1.61 | 0.07 | –
B16 | – | – | 1.59 | 0.0779 | –
B17 | – | – | – | – | Phage binding ELISA, Anti-PSMA Fab signal [7]: 1.86; Phage binding ELISA, Anti-PSMA Fab signal in the presence of PSMA [8]: 0.123
B18 | 0.0682 | 1.57 | – | – | –
B19 | 0.0801 | 1.56 | – | – | –

Binder | Anti-PSMA Fab signal in the presence of PSMA [1] | Anti-PSMA Fab (SEQ ID NOs: 19, 20) signal [2] | Phage binding ELISA, Anti-PSMA Fab signal [3] | Phage binding ELISA, Anti-PSMA Fab signal in the presence of PSMA [4] | other results
B20 | – | – | 1.59 | 0.0929 | –
B21 | 0.0932 | 1.57 | – | – | –
B22 | – | – | 1.59 | 0.111 | –
B23 | – | – | 1.59 | 0.0672 | –
B24 | 0.112 | 1.57 | – | – | –
B25 | 0.0668 | 1.57 | – | – | –
B26 | – | – | 1.59 | 0.0904 | –
B27 | – | – | – | – | Phage binding ELISA signal, Anti-PSMA Fab in presence of PSMA antigen (PSMA Fab (006 PSMA Fab) [5]): 0.0701; Phage binding ELISA signal, Anti-PSMA Fab (PSMA Fab (006 PSMA Fab) [6]): 1.47
B28 | 0.0783 | 1.58 | – | – | –
B29 | 0.0946 | 1.56 | – | – | –
B30 | – | – | 1.61 | 0.103 | –
B31 | – | – | 1.61 | 0.0587 | –
B32 | 0.128 | 1.58 | – | – | –
B33 | – | – | 1.58 | 0.0915 | –
B34 | 0.0848 | 1.57 | – | – | –
B35 | – | – | 1.6 | 0.0578 | –
B36 | – | – | 1.61 | 0.078 | –
B37 | – | – | 1.6 | 0.157 | –
B38 | 0.131 | 1.58 | – | – | –
